Results as given in patent US20150259419A1 (PROTHENA BIOSCIENCES, published 2015).
Positions count from the first letter of the chain named.

T1: combination of human MCAM domains 1 and 2 (MCAMhFc domain construct) (human, UniProt P43121 19-242)
T1 construct: not shown: human Fc portion
T1 sequence: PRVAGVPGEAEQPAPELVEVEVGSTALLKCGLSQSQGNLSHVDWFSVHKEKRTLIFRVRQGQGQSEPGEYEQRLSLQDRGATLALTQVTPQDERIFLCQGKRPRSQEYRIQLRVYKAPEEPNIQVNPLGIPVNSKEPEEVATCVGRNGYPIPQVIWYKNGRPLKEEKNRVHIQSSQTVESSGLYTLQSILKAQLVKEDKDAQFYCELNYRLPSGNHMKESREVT

T2: human MCAM domain 2 (MCAMhFc domain construct) (human, UniProt P43121 139-242)
T2 construct: not shown: human Fc portion
T2 sequence: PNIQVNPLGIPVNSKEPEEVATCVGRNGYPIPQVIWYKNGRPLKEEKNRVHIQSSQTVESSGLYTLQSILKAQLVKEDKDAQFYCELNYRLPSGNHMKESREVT

T3: human MCAM domain 1 (MCAMhFc domain construct) (human, UniProt P43121 19-129)
T3 construct: also called amino acids 19-129; not shown: human Fc portion (captured on anti-human IgG Fc biosensors)
T3 sequence: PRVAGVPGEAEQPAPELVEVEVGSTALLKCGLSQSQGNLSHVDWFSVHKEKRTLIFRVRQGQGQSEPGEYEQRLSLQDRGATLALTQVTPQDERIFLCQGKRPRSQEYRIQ

T4: human MCAM domain 3 (MCAMhFc domain construct) (human, UniProt P43121 244-321)
T4 construct: also called amino acids 244-321; not shown: human Fc portion
T4 sequence: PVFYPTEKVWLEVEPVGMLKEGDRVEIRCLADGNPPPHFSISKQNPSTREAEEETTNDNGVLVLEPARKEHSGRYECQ

T5: full length MCAMhFc protein (extracellular domain of human MCAM fused to human IgG) (human, UniProt P43121 24-559)
T5 construct: also called hMCAM-Fc; Human MCAM-Fc protein; not shown: human IgG (Fc) portion
T5 chain: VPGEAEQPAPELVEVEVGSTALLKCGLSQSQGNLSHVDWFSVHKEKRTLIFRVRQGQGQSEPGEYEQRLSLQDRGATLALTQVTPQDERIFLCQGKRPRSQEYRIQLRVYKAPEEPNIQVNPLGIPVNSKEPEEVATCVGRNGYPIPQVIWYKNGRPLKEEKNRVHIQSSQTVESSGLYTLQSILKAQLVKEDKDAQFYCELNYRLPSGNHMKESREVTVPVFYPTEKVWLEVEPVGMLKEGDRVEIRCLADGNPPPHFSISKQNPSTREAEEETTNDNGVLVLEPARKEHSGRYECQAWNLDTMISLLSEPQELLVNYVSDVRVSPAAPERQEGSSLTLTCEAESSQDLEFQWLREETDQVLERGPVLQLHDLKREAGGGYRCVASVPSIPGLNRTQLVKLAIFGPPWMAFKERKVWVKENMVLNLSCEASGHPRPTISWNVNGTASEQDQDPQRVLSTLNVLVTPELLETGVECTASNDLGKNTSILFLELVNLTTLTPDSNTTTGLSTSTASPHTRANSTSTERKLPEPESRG

B1: mouse anti-human MCAM monoclonal antibody clone 1415.1.1 (antibody, V domains shown)
VH: QVQLQQPGAELVQPGAPVKLSCKASGYIFTSYWMNWVKQRPGRGLEWIGRIDPSDSKIHYNQKFKDKATLTVDRSSSTAYIQLGSLTSEDSAVYYCAKEGGLRRGDYAMDYWGQGTSVTVSS
VL: DIVMTQSPATLSVTPGDRVSLSCRASQSISDYLHWYQQKSHESPRLLIKYASQSISGIPSRFSGSGSGSDFTLSINSVEPEDVGVYYCQNGHNFPRTFGGGTKLEIK
notes: Mouse hybridoma antibody
B2: mouse anti-human MCAM monoclonal antibody clone 1414.1.2 (antibody, V domains shown)
VH: EIQLQQTGPELVKPGASVKISCKASGYSFTDYIMLWVKQSHGKSLEWIGNINPYSGSSGYNLKFKGKATLTVDKSSSTAYMQLNSLTSEDSAVYYCARGKDFAMDYWGQGTSVTVSS
VL: DIVMSQSPSSLAVSAGEKVTMSCKSSQSLLNSSTRKNFLAWYQQKPGQSPKLLIYWASTRESGVPDRFTGSGSGTDFTLTISSVQAEDLAVYYCKQSYNRYTFGGGTKLEIK
notes: Mouse hybridoma antibody
B3: mouse anti-human MCAM monoclonal antibody clone 1749.1.3 (antibody, V domains shown)
VH: DVKLVESGGDLVKPGGSLKLSCAASGFTFSSYIMSWVRQTPEKRLEWVATISSGGSSTYYPDSVKGRFTISRDNAKNTLYLQMSSLKSEDTAMYYCTRDDDYDVKVFAYWGQGTLVTVSA
VL: B2 VL with S22N, Q27R, S33R, T34I, F38Y, R100L, Y101L, G105A, I111L
notes: Mouse hybridoma antibody
B4: mouse anti-human MCAM monoclonal antibody clone 1174.1.3 (antibody, V domains shown)
VH: QIQLVQSGPELKKPGETVKISCKASGYTFTNYGMNWVKQAPGKGLKWMGWINTYTGEPTYADDFKGRFALSLETSASTAYLQINNLKNEDMATYFCARYRYNKYERAMDYWGQGTSVTVSS
VL: DIVLTQSPASLAVSLGQRATISCRASKSVSTSGYSYMYWYQQKPGQPPKLLIYLASNLESGVPARFSGSGSGTDFTLNIHPVEEEDAATYYCQHSRELPFTFGSGTKLEIK
notes: Mouse hybridoma antibody
B5: human MCAM, full length, expressed on transfected cells (receptor)
chain: VPGEAEQPAPELVEVEVGSTALLKCGLSQSQGNLSHVDWFSVHKEKRTLIFRVRQGQGQSEPGEYEQRLSLQDRGATLALTQVTPQDERIFLCQGKRPRSQEYRIQLRVYKAPEEPNIQVNPLGIPVNSKEPEEVATCVGRNGYPIPQVIWYKNGRPLKEEKNRVHIQSSQTVESSGLYTLQSILKAQLVKEDKDAQFYCELNYRLPSGNHMKESREVTVPVFYPTEKVWLEVEPVGMLKEGDRVEIRCLADGNPPPHFSISKQNPSTREAEEETTNDNGVLVLEPARKEHSGRYECQAWNLDTMISLLSEPQELLVNYVSDVRVSPAAPERQEGSSLTLTCEAESSQDLEFQWLREETDQVLERGPVLQLHDLKREAGGGYRCVASVPSIPGLNRTQLVKLAIFGPPWMAFKERKVWVKENMVLNLSCEASGHPRPTISWNVNGTASEQDQDPQRVLSTLNVLVTPELLETGVECTASNDLGKNTSILFLELVNLTTLTPDSNTTTGLSTSTASPHTRANSTSTERKLPEPESRGVVIVAVIVCILVLAVLGAVLYFLYKKGKLPCRRSGKQEITLPPSRKTELVVEVKSDKLPEEMGLLQGSSGDKRAPGDQGEKYIDLRH
notes: CHO cells transfected with the full length human MCAM gene; also called hMCAM; CD146

Target: B5
Assay: blocking of laminin 411 (20 ug/ml) binding to CHO cells expressing human MCAM, flow cytometry
Method: The 87 independent mouse fusion clones and 26 independent rat fusion clones described in Example 1 above as being capable of (i) binding to human MCAM, and (ii) blocking the interaction between human MCAM and the α-4 chain of laminin were further characterized as follows. First, IC50 quantitation for the ability of the monoclonal antibody to block the binding of human MCAM to the α-4 chain of laminin was determined as follows. CHO cells expressing human MCAM were incubated with an anti-human MCAM antibody (at various concentrations) for 30 minutes at 4 degrees Celsius. […] Unbound laminin was then washed away, and the laminin bound to the surface of the cells was detected with fluorescently labeled anti-laminin antibodies. After washing, the amount of laminin bound to the surface was detected by flow cytometry, and IC50s were calculated based on the mean fluorescent intensity.
Amino acid and nucleic acid sequences of the heavy and light chains of these antibodies, and their hypervariable regions, are provided in SEQ ID NOs:29-92. […] As such, each of these specific monoclonal antibodies was very capable of binding to human MCAM and inhibiting the interaction of cell-expressed human MCAM with its α-4 laminin binding ligand.

IC50 [µg/mL]	Binder
0.307	B1
0.431	B2
0.545	B3
0.469	B4

Target: T1, combination of human MCAM domains 1 and …
Assay: ForteBio Octet Red, MCAMhFc domains on anti-human IgG Fc biosensors
From the text: (§1) The following protocol was used: ForteBio anti-human IgG Fc biosensors were used to immobilize various MCAMhFc domains including full length MCAMhFc protein on to biosensor surface. […] After loading these samples into a black 96 well plate, the Octet Red was programmed as follows: 60 seconds for baseline #1; 180 seconds for loading various domains; 60 seconds for baseline #2; 180 seconds for association of antibody to domain; and 240 seconds for dissociation of antibody from domain.
(§2) 1. MCAMhFc final concentration@5 ug/ml [0374] […] 3. ForteBio anti-human IgG Fc Capture (AHC) biosensors for kinetics experiments, cat #18-5060 [0376] 4. Block 96 well plate from Greiner Bio-one, cat #655209 [0377] 5. ForteBio Octet Red machine [0378] 6. Fresh tissue culture medium, DMEM with 20% FCS, was used as buffer for dilution

binding result	Binder
no binding (tested: 5 ug/ml)	B1
no binding (tested: 5 ug/ml)	B2
no binding (tested: 5 ug/ml)	B3
no binding (tested: 5 ug/ml)	B4

Target: T2, human MCAM domain 2 (MCAMhFc domain …)
Assay: as above
From the text: as §1, §2

binding result	Binder
no binding (tested: 5 ug/ml)	B1
no binding (tested: 5 ug/ml)	B2
no binding (tested: 5 ug/ml)	B3
no binding (tested: 5 ug/ml)	B4

Target: T3, human MCAM domain 1 (MCAMhFc domain …)
Assay: as above
From the text: as §1, §2

binding result	Binder
no binding (tested: 5 ug/ml)	B1
no binding (tested: 5 ug/ml)	B2
no binding (tested: 5 ug/ml)	B3
no binding (tested: 5 ug/ml)	B4

Target: T4, human MCAM domain 3 (MCAMhFc domain …)
Assay: ForteBio Octet Red, MCAMhFc domains on anti-human IgG Fc biosensors, antibody at 5 ug/ml
From the text: as §1, §2

binding result	Binder
binds	B1
binds	B2
binds	B3
binds	B4

Target: T6, recombinant laminin 511 (UniProt O15230 36-3695; P07942 22-1786; P11047 34-1609)
T6 construct: also called laminin 10 (α5β1γ1)
Assay: CHO cells transfected with human MCAM incubated with laminin, pan-laminin antibody, flow cytometry

binding result	Binder
no binding (tested: 10 µg/ml)	B5

Target: T5, full length MCAMhFc protein …
Assay: summary of Examples 2 and 3

binding result	Binder
binds	B1
binds	B2
binds	B3
binds	B4
